Experimental findings from patent US20090155250A1 (US Dept. of Health and Human Services, published 2009) are described below.

The target of assay [1] is T1, BSA (UniProt P02769 25-607).
T1 construct: Unrelated control protein
The experiment in a line: ELISA, wells coated with the unrelated protein, IgG titrated. A general note: An ELISA detects its analyte on a solid surface through an enzyme-linked reagent.

Assay [2] addresses T1, BSA. Description: ELISA, protein coated on wells.

T1 sequence (P02769 25-607 limits assumed): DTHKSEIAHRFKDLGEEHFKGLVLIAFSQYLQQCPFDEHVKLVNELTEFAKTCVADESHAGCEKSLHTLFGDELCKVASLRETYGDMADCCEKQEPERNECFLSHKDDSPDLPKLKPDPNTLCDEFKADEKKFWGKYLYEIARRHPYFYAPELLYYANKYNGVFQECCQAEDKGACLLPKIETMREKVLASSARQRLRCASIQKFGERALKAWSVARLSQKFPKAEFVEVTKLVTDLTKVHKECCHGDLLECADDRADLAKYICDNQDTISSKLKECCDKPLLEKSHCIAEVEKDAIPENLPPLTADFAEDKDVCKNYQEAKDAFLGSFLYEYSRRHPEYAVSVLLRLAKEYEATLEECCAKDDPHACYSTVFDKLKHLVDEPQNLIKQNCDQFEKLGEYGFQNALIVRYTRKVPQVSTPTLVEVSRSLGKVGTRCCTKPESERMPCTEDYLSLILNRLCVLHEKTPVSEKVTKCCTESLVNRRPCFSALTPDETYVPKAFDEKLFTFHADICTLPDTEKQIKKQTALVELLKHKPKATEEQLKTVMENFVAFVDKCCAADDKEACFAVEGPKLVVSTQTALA

B1: chimpanzee/human anti-B5 MAb 8AH8AL (antibody, V domains shown)
VH: EVQLLESGGGLIKPGGSLRLSCAASGFIFRDYNINWVRQAPGKGLEWLGFIRTRASGRSTEYSASVKGRFTISRDDSKNIAYLHINSLKMEDTAVYYCAKKGDSYYYMDFWGKGTAVTVS
VL: ELALTQPASVSGSPGQSITISCTGGRSDLGDSNFVSWYQQYPGKAPKLLIYQVNKRPSGVPDRFSASKSANTASLTISGLQTEDEADYFCSSYTTTSTYVFGIGTKVVVLG
notes: also called anti-B5 8AH8AL; Anti-B5 8AH8AL
Turning to B1, in assay [1], the binding result is reported as “no binding (tested: 10^4 ng/ml)”.

B2: chimpanzee/human anti-B5 MAb 8AH7AL (antibody, V domains shown)
VH: B1 VH
VL: ELALTQPPSVSGSPGQSITISCTGTSSDVGGHNGVSWYQQYPGKAPKVMIYEVNKRPSGVSNRLSGSKSGNTASLTISGLQAEDEGDYYCSSYRNGGSVVFGGGTKLTVLG
notes: also called anti-B5 8AH7AL
B2: in assay [2], the binding result was “no binding”.
